Assays:
SLAMF9 protein = SLAMF9 protein (UniProt Q96A28 19-236, limits assumed); experiment: phage clone on SLAMF9 protein
[1] = target: T1, FcRL6, overexpressed on 3T3 cells (UniProt Q6DN72 20-434, limits assumed); experiment: phage clone on 3T3-FcRL6 cells
T1 construct: whole, on cells
T1 sequence (looked up): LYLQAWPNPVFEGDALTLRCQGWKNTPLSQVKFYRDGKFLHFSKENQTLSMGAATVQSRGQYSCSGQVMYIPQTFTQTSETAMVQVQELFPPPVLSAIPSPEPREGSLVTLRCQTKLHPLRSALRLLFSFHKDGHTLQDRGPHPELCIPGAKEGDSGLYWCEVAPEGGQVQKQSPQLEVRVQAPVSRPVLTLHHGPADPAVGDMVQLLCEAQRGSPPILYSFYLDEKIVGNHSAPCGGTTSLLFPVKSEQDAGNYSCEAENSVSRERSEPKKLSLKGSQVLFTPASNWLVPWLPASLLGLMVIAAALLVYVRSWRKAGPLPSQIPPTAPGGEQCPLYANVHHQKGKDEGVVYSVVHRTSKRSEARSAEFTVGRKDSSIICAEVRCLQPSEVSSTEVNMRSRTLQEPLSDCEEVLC

[2] = target: T2, FcRL4, overexpressed on 3T3 cells (UniProt Q96PJ5 20-515, limits assumed); experiment: phage clone on 3T3-FcRL4 cells
T2 construct: whole, on cells
T2 sequence (looked up): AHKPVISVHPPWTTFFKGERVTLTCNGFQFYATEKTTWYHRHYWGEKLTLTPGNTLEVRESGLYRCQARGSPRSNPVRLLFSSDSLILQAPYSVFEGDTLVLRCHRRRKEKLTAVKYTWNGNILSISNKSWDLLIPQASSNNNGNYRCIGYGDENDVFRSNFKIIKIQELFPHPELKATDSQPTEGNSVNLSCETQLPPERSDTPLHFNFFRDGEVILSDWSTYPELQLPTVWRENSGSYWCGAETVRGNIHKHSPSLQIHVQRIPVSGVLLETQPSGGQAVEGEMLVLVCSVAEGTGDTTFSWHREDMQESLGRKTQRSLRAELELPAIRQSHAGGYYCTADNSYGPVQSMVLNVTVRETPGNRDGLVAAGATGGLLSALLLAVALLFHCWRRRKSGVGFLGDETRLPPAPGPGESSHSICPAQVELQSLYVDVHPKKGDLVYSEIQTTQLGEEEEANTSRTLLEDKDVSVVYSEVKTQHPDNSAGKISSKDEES

Measured: binding result

SLAMF9 protein, sequence (Q96A28 19-236 limits assumed): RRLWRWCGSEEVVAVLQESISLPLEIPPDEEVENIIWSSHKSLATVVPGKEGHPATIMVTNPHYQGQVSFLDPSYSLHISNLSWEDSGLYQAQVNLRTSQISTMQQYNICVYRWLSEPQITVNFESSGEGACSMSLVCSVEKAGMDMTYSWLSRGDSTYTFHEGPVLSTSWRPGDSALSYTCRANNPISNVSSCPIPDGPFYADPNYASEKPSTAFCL

B1: ET200-020 (scFv)
scFv: QSVVTQPPSVSAAPGQKVTISCSGSTSNIGNNDVSWYQQLPGTAPKLLIYDNNKRPSGIPDRFSGSKSGTSATLGITGLQTGDEADYYCGTWDSSVSASWVFGRGTKLTVLGSRGGGGSGGGGSGGGGSLEMAQVQLVQSGAEVKKPGASVKVSCKASGYTFTSYGISWVRQAPGQGLEWMGWISAYNGNTNYPQKLQGRVTMTTDPSTSTAYMELRSLRSDDTAVYYCARSMTSFDYWGQGTLVTVSSTSGQAGQHHHHHHGAYPYDVPDYAS
notes: screened as phage clone; entry is VL-linker-VH-His tag-HA tag
no binding: all assays above

B2: ET200-017 (scFv)
scFv: SYVLTQPPSVSVAPGKTARITCGGNNIGSKSVHWYQQKPGQAPVLVVYDDSDRPSGIPERFSGSNSGNTATLSISRVEAGDEADYYCQVWDSSSDHTVFGTGTKVTVLGSRGGGGSGGGGSGGGGSLEMAQVQLQQWGAGLLKPSETLSLTCAVYGGSFSGYYWSWIRQPPGKGLEWIGEINHSGSTNYNPSLKSRVTISVDTSKNQFSLKLSSVTAADTAVYYCARYYPGMDMWGQGTLVTVSSTSGQAGQHHHHHHGAYPYDVPDYAS
notes: as for B1
no binding: all assays above

B3: ET200-015 (scFv)
scFv: QSVVTQPPSVSVAPGKTARITCGGNNIGSKSVHWYQQKPGQAPVLVIYYDSDRPSGIPERFSGSNSGNTATLTISRVEAGDEADYYCQVWDSSSDVVFGGGTKLTVLGSRGGGGSGGGGSGGGGSLEMAEVQLVQSGAEVKKPGASVKVSCKASGYTFTSYGISWVRQAPGQGLEWMGWISAYNGNTNYAQKLQGRVTMTTDTSTSTAYMELRSLRSDDTAVYYCARWGGFGAVDHWGQGTLVTVSSTSGQAGQHHHHHHGAYPYDVPDYAS
notes: as for B1
no binding: all assays above

B4: ET200-021 (scFv)
scFv: QSVLTQPPSVSAAPGQKVTISCSGSNSNIGNNYVSWYQQLPGTAPKLLIYDNNKRPSGIPDRFSGSRSGTSATLGITGLQTGDEADYYCGTWNTTVTPGYVFGTGTKVTVLGSRGGGGSGGGGSGGGGSLEMAEVQLVQSGAEVKKPGASVKVSCKASGYTFTSYGISWVRQAPGQGLEWMGWISAYNGNTNYAQKLQGRVTMTTDTSTSTAYMELRSLRSDDTAMYYCARSVYDLDTWGQGTLVTVSSTSGQAGQHHHHHHGAYPYDVPDYAS
notes: as for B1
no binding: all assays above

B5: ET200-023 (scFv)
scFv: LPVLTQPPSVSVAPGKTARITCGGNNIGSKSVHWYQQKPGQAPVLVVYADSDRPSGIPERFSGSNSGNTATLTISRVEAGDEADYYCQVWDSSSYHNYVFGTGTKVTVLGSRGGGGSGGGGSGGGGSLEMAEVQLVQSGAEVKKPGASVKVSCKASGYTFTSYGISWVRQAPGQGLEWMGWISAYNGNTNYAQKLQGRVTMTTDTSTSTAYMELSSLRSEDTAMYYCARYWGFGVSDRWGQGTLVTVSSTSGQAGQHHHHHHGAYPYDVPDYAS
notes: as for B1
no binding: all assays above

B6: ET200-018 (scFv)
scFv: QAVLTQPPSTSGTPGQRVTISCSGSSSNIGRNGVNWYQQLPGAAPKVLIYNDNQRPSGVPDRVSGSQSGSSGTLAIDGLRSEDEADYYCAAWDDSLHGVVFGGGTKLTVLGSRGGGGSGGGGSGGGGSLEMAQVQLVQSGAEVKKPGASVKVSCKVSGYTLNELSMHWVRQAPGKGLEWMGGFDPEDGETIYAQKFQGRVTMTEDTSTDTAYMELSSLRSEDTAVYYCARGGYGDSWGQGTLVTVSSTSGQAGQHHHHHHGAYPYDVPDYAS
notes: as for B1
no binding: all assays above

B7: ET200-022 (scFv)
scFv: QSVVTQPPSVSAAPGQKVTISCSGSSSNIGNNYVSWYQQLPGTAPKLLIYDNNKRPSGIPDRFSGSKSGTSATLGITGLQTGDEADYYCGTWDSSLGAPYVFGTGTKVTVLGSRGGGGSGGGGSGGGGSLEMAEVQLVQSWGGSEQPGRSLRLSCAASGFTFDDYAMHWVRQAPGKGLEWVSGISWNSGSIGYADSVKGRFTISRDNAKNSLYLQMNSLRAEDTAMYYCARYRQVGSAYDSWGQGTLVTVSSTSGQAGQHHHHHHGAYPYDVPDYAS
notes: as for B1
no binding: all assays above

B8: ET200-016 (scFv)
scFv: SSELTQDPAVSVALGQTVKITCQGDSLTDYHATWYQQKPGQAPVAVIYATNNRPTGIPDRFSGSSSGNTASLTITGAQAEDEADYYCNSRDSGTDEVLFGGGTKLTVLGSRGGGGSGGGGSGGGGSLEMAEVQLVETGGGLVKPGGSLRLSCAASGFTFSSYSMNWVRQAPGKGLEWVSSISSSSSYIYYADSVKGRFTISRDNAKNSLYLQMNSLRAEDTAVYYCARGQGYDYWGQGTLVTVSSTSGQAGQHHHHHHGAYPYDVPDYAS
notes: as for B1
no binding: all assays above

B9: ET200-011 (scFv)
scFv: QSVVTQPPSVSAAPGQRVTISCSGSSSNISIYDVSWYQQLPGTAPKLLIYGNNKRPSGIADRFSGSTSGTSATLGITGLQTGDEADYYCGTWDDSLSGGVFGGGTKLTVLGSRGGGGSGGGGSGGGGSLEMAQMQLVQSGAEVKKPGSSVKVSCEASGGTLSSYAINWVRQAPGQGLEWMGGIIPMFGTAHYAQKFQGRVTITADESTKTAYMELSSLRSEDTAVYYCARGVHYASFDHWGQGTLVTVSSTSGQAGQHHHHHHGAYPYDVPDYAS
notes: as for B1
no binding: all assays above

B10: ET200-019 (scFv)
scFv: NFMLTQPHSVSESPGKTVTISCTRSSGSIASNYVQWYQQRPGSAPTTVIYEDNQRPSGVPDRFSGSIDSSSNSASLTISGLKTEDEADYYCQSYDSSNSWVFGGGTKLTVLGSRGGGGSGGGGSGGGGSLEMAQVQLVQSGAEVKRPGSSVKVSCTASGGTFSSDAISWVRQAPGQGLEWMGGIIPMFGTANYAQKFQGRVTITADESTSTAYMELSSLRSEDTAVYYCAREGYYYPSAYLGSVLNDISSVYDEWGQGTLVTVSSTSGQAGQHHHHHHGAYPYDVPDYAS
notes: as for B1
no binding: all assays above

B11: ET200-014 (scFv)
scFv: SYVLTQPPSVSVAPGKTARITCGGNNIGSKSVHWYQQKPGQAPVLVIYYDSDRPSGIPERFSGSNSGNTATLTISRVEAGDEADYYCQVWDSSSDHYVFGTGTKVTVLGSRGGGGSGGGGSGGGGSLEMAEVQLVETGGGLVQPGGSLRLSCAASGFTFSSYAMSWVRQAPGKGLEWVSAISGSDGSTYYADSVKGRFTISRDNSKNTLYLQMNSLRDEDTAVYYCARSHEANLVGDWWGQGTLVTVSSTSGQAGQHHHHHHGAYPYDVPDYAS
notes: as for B1
no binding: all assays above

B12: ET200-039 (scFv)
scFv: NFMLTQPHSVSESPGKTVTISCTRSSGSIASNYVQWYQQRPGSSPTTVIYEDNQRPSGVPDRFSGSIDSSSNSASLTISGLKTEDEADYYCQSYDSSNWVFGGGTKLTVLGSRGGGGSGGGGSGGGGSLEMAEVQLVQSGAEVKKPGSSVKVSCKASGGTFSSYAISWVRQAPGQGLEWMGGIIPIFGTANYAQKFQGRVTITADESTSTAYMELSSLRSEDTAVYYCARSNYYYNDYWGQGTLVTVSSTSGQAGQHHHHHHGAYPYDVPDYAS
notes: screened as phage clone; entry is VL-linker-VH-His tag-HA tag; also called ET200-39
no binding: all assays above

B13: ET200-012 (scFv)
scFv: QSVLTQPPSVSAAAGQKVTISCSGSDSNIGNNYVSWYQHLPGTAPKLLIYDVKNRPSGIPDRFSGSKSGSSATLGIAGLQPGDEADYYCGTWDSRLDAYVFGTGTKVTVLGSRGGGGSGGGGSGGGGSLEMAQMQLVQSGAEVKKPGASVKVSCKTSGFPFNIFGITWVRQAPGQGLEWMGWISGYNGNTDYPQKFQGRVTMSTDTSTSTAYMELRNLKSDDTAVYYCARGAYGGMDTWGQGTLVTVSSTSGQAGQHHHHHHGAYPYDVPDYAS
notes: as for B1
no binding: all assays above

B14: ET200-013 (scFv)
scFv: QSVVTQPPSVSGAPGQRVTISCTGSTSNIGAGYDVHWYQQLPGTAPKLLIYTNNFRPSGVPDRFSASKSGTSASLAITGLQAEDEADYYCGTWDSSLSAVVFGGGTKLTVLGSRGGGGSGGGGSGGGGSLEMAEVQLVESGTEVKKPGASVKVSCKASGYMFTSYGLNWVRQAPGQGLEWMGWISANNGKTNYAKKFQDRVTMTRDTSTSTGYMELRSLRSDDTAVYYCARHIGGSYFDRWGQGTLVTVSSTSGQAGQHHHHHHGAYPYDVPDYAS
notes: as for B1
no binding: all assays above
